Results taken from patent US20160169885A1.

Key:
[1] = tested on: Ac-N-Asp-Gly-Asp-Ala-Gly-Tyr-Ala-Gly-Leu-Arg-Gly-Ala-Gly-diamino-ethyl-Bodipy FL
[2] = target: Ac-N-Asp-Gly-Asp-Ala-Gly-Tyr-Ala-Gly-Leu-Arg-Gly-Ala-Gly-diamino-ethyl-Bodipy FL; test: cell-based or functional assay

Substance | cleavage of the substrate, agarose gel electrophoresis, 1×PBS [1] | detection limit of the cleavage products in whole rat blood (reaction in 1×PBS, then mixed with inhibitor-treated blood), agarose gel [2]
bovine pancreatic α-chymotrypsin | after cleavage by α-chymotrypsin, migrates as two bands toward the cathode, representing a primary ... and a secondary ... α-chymotrypsin cleavage product | 
bovine pancreatic trypsin (from UniProt P00760 24-246) (enzyme) |  | 50 nM
